Where no end group is shown, it is not given here. The star is where a group is joined. Dnp = O=[N+]([O-])c1ccc(*)c([N+](=O)[O-])c1; 2Abz = Nc1ccccc1C(=O)O
Molecular target: Human plasma purified α-thrombin (human, UniProt P00734 328-622)
Assay: cell-based or functional assay

With K(Dnp)DFLAEGGGVRIVGGK(2Abz) [Lys(Dnp)-DFLAEGGGVRIVGG-Lys(Abz)] the “Fold-Improved (FpA)” value was 1 fold and the “Fold-Improved (PAR-1)” value was 0.1 fold.

From patent US20160024487A1 (Novo Nordisk, published 2016)
